2 molecules from patent publication EP4556018A1 (OSAKA UNIVERSITY, dated 2025) can be followed below.

Assay [1] addresses T1, HDAC1 of mouse Treg cells (mouse, UniProt O09106 1-482).
T1 construct: also called HDAC1 protein
Kind of assay: immunoprecipitation of endogenous Foxp3 from Ikzf1-expressing mouse Treg cells, Simple Western.

Another assay deals with T2, Flag-IkΔE5 (Mus musculus, UniProt Q03267 1-517, limits assumed).
T2 construct: Forcedly expressed in HEK293T cells; also called ΔE5 variant; Ikzf1ΔE5; not shown: Flag tag
T2 sequence (Q03267 other isoform, or with tags, fused parts or gaps mutant limits assumed): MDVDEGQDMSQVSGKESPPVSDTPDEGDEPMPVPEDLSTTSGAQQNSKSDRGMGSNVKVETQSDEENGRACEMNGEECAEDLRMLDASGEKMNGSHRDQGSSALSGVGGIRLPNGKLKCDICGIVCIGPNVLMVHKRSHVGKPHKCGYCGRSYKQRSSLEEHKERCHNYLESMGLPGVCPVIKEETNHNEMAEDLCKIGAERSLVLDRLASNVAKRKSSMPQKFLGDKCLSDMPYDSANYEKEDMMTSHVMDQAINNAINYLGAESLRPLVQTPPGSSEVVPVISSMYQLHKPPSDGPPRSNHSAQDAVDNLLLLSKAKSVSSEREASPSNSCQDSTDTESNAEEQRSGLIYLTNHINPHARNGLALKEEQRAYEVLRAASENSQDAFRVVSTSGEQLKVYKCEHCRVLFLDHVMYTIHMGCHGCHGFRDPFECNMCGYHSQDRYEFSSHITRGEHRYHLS
The assay is described as follows: co-immunoprecipitation with anti-Flag-M2 antibody from HEK293T lysate, Western blot with anti-c-Myc. (In western blotting, separated proteins are transferred to a membrane and probed.)

T1 sequence (O09106 whole entry): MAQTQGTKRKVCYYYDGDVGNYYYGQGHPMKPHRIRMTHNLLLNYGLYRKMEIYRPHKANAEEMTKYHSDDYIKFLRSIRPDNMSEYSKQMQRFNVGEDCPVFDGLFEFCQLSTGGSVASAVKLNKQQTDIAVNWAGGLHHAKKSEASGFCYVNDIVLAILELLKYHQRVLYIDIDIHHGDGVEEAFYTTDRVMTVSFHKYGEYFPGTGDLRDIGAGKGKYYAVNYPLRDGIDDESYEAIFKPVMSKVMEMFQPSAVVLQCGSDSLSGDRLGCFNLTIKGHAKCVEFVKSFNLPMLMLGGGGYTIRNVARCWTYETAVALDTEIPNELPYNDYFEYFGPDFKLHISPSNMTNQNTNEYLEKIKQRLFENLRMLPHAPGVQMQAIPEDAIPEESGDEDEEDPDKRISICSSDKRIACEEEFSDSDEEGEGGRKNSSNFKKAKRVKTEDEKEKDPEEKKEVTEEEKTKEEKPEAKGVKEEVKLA

B1: endogenous Foxp3 of mouse Treg cells (other, UniProt Q99JB6 1-429, looked up)
chain: MPNPRPAKPMAPSLALGPSPGVLPSWKTAPKGSELLGTRGSGGPFQGRDLRSGAHTSSSLNPLPPSQLQLPTVPLVMVAPSGARLGPSPHLQALLQDRPHFMHQLSTVDAHAQTPVLQVRPLDNPAMISLPPPSAATGVFSLKARPGLPPGINVASLEWVSREPALLCTFPRSGTPRKDSNLLAAPQGSYPLLANGVCKWPGCEKVFEEPEEFLKHCQADHLLDEKGKAQCLLQREVVQSLEQQLELEKEKLGAMQAHLAGKMALAKAPSVASMDKSSCCIVATSTQGSVLPAWSAPREAPDGGLFAVRRHLWGSHGNSSFPEFFHNMDYFKYHNMRPPFTYATLIRWAILEAPERQRTLNEIYHWFTRMFAYFRNHPATWKNAIRHNLSLHKCFVRVESEKGAVWTVDEFEFRKKRSQRPNKCSNPCP
notes: Immunoprecipitated with anti-Foxp3 antibody from Treg cell lysates
For B1, the binding result in assay [1] is given as “binds”.

B2: Myc-Foxp3 (other, UniProt Q99JB6 1-429, looked up)
chain: B1 chain
notes: Forcedly expressed in HEK293T cells; not shown: Myc tag
As for B2, the binding result with Flag-IkΔE5 is reported as “no binding”.
